This assay deals with T1, Kif4A-GFP (UniProt O95239 1-1232).
T1 sequence: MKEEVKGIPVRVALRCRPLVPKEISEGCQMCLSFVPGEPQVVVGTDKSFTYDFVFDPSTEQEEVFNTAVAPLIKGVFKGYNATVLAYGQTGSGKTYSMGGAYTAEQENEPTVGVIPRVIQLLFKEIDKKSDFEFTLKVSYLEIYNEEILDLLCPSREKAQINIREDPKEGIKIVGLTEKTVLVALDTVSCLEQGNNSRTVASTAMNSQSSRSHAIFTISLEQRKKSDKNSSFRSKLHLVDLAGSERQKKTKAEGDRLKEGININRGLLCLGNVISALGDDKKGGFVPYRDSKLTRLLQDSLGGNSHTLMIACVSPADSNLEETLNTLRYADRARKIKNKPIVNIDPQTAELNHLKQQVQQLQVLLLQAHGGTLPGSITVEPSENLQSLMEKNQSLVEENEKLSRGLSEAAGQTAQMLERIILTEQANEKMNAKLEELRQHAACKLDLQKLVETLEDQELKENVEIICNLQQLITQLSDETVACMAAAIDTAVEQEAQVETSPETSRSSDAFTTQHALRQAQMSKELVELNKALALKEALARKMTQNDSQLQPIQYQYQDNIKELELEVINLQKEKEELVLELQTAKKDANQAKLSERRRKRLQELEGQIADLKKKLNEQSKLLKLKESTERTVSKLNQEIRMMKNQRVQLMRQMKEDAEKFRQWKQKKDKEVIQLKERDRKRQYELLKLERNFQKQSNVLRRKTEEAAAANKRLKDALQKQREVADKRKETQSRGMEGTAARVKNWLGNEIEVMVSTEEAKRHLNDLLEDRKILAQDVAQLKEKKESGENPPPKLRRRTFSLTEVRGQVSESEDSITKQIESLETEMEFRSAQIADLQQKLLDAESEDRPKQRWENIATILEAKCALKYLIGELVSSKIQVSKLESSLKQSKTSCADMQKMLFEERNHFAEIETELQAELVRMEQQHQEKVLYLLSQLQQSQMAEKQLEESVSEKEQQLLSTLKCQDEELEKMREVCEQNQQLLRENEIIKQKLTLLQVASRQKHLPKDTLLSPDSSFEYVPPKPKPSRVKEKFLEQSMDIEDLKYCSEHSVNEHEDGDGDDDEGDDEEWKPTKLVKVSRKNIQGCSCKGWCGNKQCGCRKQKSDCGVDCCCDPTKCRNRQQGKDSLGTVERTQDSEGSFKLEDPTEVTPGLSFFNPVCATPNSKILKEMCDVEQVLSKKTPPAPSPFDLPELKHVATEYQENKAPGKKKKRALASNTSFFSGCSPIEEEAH
Description: BLI.

B1: full-length PRC1 (Protein Regulator of Cytokinesis-1) (natural protein)
chain: MRRSEVLAEESIVCLQKALNHLREIWELIGIPEDQRLQRTEVVKKHIKELLDMMIAEEESLKERLIKSISVCQKELNTLCSELHVEPFQEEGETTILQLEKDLRTQVELMRKQKKERKQELKLLQEQDQELCEILCMPHYDIDSASVPSLEELNQFRQHVTTLRETKASRREEFVSIKRQIILCMEALDHTPDTSFERDVVCEDEDAFCLSLENIATLQKLLRQLEMQKSQNEAVCEGLRTQIRELWDRLQIPEEEREAVATIMSGSKAKVRKALQLEVDRLEELKMQNMKKVIEAIRVELVQYWDQCFYSQEQRQAFAPFCAEDYTESLLQLHDAEIVRLKNYYEVHKELFEGVQKWEETWRLFLEFERKASDPNRFTNRGGNLLKEEKQRAKLQKMLPKLEEELKARIELWEQEHSKAFMVNGQKFMEYVAEQWEMHRLEKERAKQERQLKNKKQTETEMLYGSAPRTPSKRRGLAPNTPGKARKLNTTTMSNATANSSIRPIFGGTVYHSPVSRLPPSGSKPVAASTCSGKKTPRTGRHGANKENLELNGSILSGGYPGSAPLQRNFSINSVASTYSEFAKDPSLSDSSTVGLQRELSKASKSDATSGILNSTNIQS
As for B1, the Kd is 12.5 ± 2.09 nM.
